# Test results as given in patent US20190040115A1 (IMMATICS BIOTECHNOLOGIES, published 2019).
# Biological target: T1, HLA-A*02:01 (human)
# T1 construct: captured on streptavidin plates; also called peptide-receptive MHC molecules
# Experiment: UV peptide exchange ELISA (anti-b2m); yield grade: + >10%, ++ >20%, +++ >50, ++++ >75%
# Excerpt: Candidate peptides for T cell based therapies according to the present invention were further tested for their MHC binding capacity (affinity). The individual peptide-MHC complexes were produced by UV-ligand exchange, where a UV-sensitive peptide is cleaved upon UV-irradiation, and exchanged with the peptide of interest as analyzed. Only peptide candidates that can effectively bind and stabilize the peptide-receptive MHC molecules prevent dissociation of the MHC complexes. To determine the yield of the exchange reaction, an ELISA was performed based on the detection of the light chain (β2m) of stabilized MHC complexes. The assay was performed as generally described in Rodenko et al. (Rodenko et al., 2006).
# 96 well MAXISorp plates (NUNC) were coated over night with 2 ug/ml streptavidin in PBS at room temperature, washed 4× and blocked for 1 h at 37° C. in 2% BSA containing blocking buffer. Refolded HLA-A*02:01/MLA-001 monomers served as standards, covering the range of 15-500 ng/ml. Peptide-MHC monomers of the UV-exchange reaction were diluted 100 fold in blocking buffer. Samples were incubated for 1 h at 37° C., washed four times, incubated with 2 ug/ml HRP conjugated anti-β2m for 1 h at 37° C., washed again and detected with TMB solution that is stopped with […]. Absorption was measured at 450 nm. Candidate peptides that show a high exchange yield (preferably higher than 50%, most preferred higher than 75%) are generally preferred for a generation and production of antibodies or fragments thereof, and/or T cell receptors or fragments thereof, as they show sufficient avidity to the MHC molecules and prevent dissociation of the MHC complexes.
row,Binder,peptide exchange yield
1,KLLELQELVL,> 75%
2,SLLPTEQPRL,50 to 75%
3,LLSEIEEHL,> 75%
4,FLETNVPLL,50 to 75%
5,ILDEPTNHL,20 to 50%
6,VLFGAVITGA,> 75%
7,VLNEYFHNV,> 75%
8,FLLEQEKTQAL,> 75%
9,FLNLFNHTL,> 75%
10,LLEPFVHQV,> 75%
11,HLDEARTLL,> 75%
12,FLGDPPPGL,50 to 75%
13,KMVGDVTGA,50 to 75%
14,KILPDLNTV,> 75%
15,QLYNQIIKL,> 75%
16,KVPEIEVTV,> 75%
17,ALADLQEAV,> 75%
18,GLDSGFHSV,> 75%
19,VLYNESLQL,> 75%
20,SLVAILHLL,50 to 75%
21,FIDPEQIQV,50 to 75%
22,KIEDLIKYL,50 to 75%
23,TLWYVPLSL,> 75%

row,Binder,peptide exchange yield
1,IVDNTTMQL,50 to 75%
2,ILDDVAMVL,50 to 75%
3,VLFKDPVSV,> 75%
4,VLFPMDLAL,50 to 75%
5,FLPRKFPSL,> 75%
6,GLDIITNKV,50 to 75%
7,SLYSYFQKV,> 75%
8,YLINFEIRSL,> 75%
9,ALFAAGANV,50 to 75%
10,SVNGFISTL,20 to 50%
11,TLKEYLESL,50 to 75%
12,KLGFGTGVNVYL,> 75%
13,ALPPPPASI,50 to 75%
14,KTWDQVPFSV,> 75%
15,LLSNTVSTL,50 to 75%
16,LLDDPTNAHFI,50 to 75%
17,VLKADVVLL,20 to 50%
18,LLPDPLYSL,20 to 50%
19,FLYTYIAKV,50 to 75%
20,FVYGEPREL,50 to 75%
21,VMSSTLYTV,> 75%
22,ALDSDPVGL,50 to 75%
23,HLIGWTAFL,> 75%

row,Binder,peptide exchange yield
1,ALLSQDFEL,> 75%
2,ILDEGHILQL,> 75%
3,HLDQIFQNL,20 to 50%
4,LIDKIIEYL,20 to 50%
5,NLDYAILKL,10 to 20%
6,ILDEEKFNV,50 to 75%
7,LLDSGAFHL,50 to 75%
8,NLDKLYHGL,10 to 20%
9,ILDELVKSL,50 to 75%
10,GILSFLPVL,50 to 75%
11,ILGDWSIQV,> 75%
12,IIDDVMKEL,20 to 50%
13,SIPDTIASV,50 to 75%
14,ILPEAQDYFL,> 75%
15,KLSVHVTAL,> 75%
16,LLDTTQKYL,> 75%
17,SIDDSDPIV,10 to 20%
18,SLGPIMLTKI,20 to 50%
19,TTLGGFAKV,20 to 50%
20,VMFEYGMRL,> 75%
21,YVDSEGIVRM,10 to 20%
